This passage reports Kd results from patent publication US20190323012, “TNF-Alpha-Binding Aptamer, And Therapeutic Use For Same” (BIOIS CO., LTD., published 2019).

The target of series [1] is T1, TNF-alpha (Homo sapiens, UniProt P01375 P01375:77-233). The experiment in a line: EMSA; 30 mM Tris-HCl pH 7.5, 150 mM NaCl, 1.5 mM MgCl2, 2 mM DTT, tRNA, room temperature; radiolabeled RNA 50 pM. As to conditions: tags: recombinant human TNF-alpha (Sigma-Aldrich; biotinylated for SELEX); chain copies: 3. On the procedure:
The single-stranded nucleic acids (50 pM) binding to TNF-α, selected in <Example 2> and labeled with radioisotopes, were reacted with TNF-α protein in a manner in which the amount of TNF-α protein was increased (ranging from 0 to 320 nM). Here, the total amount of the aptamer, TNF-α protein, binding buffer (30 mM Tris-HCl (pH 7.5), 150 mM NaCl, 1.5 mM MgCl₂, and 2 mM DTT), and […] tRNA was adjusted to 40 μL, followed by binding at room temperature for 30 min. 6×BPB was added thereto, after which electrophoresis at 4° C. and 120 V using a 6% native gel (6% polyacrylamide, 1×TBE, 10 mM MgCl₂, 2% glycerol), exposure to an X-ray film and development were performed. The dissociation constant Kd was determined by calculating the amount of the RNA aptamer binding to TNF-α relative to the total RNA aptamer.
The 4% non-denatured acrylamide gel images of the TNF-α-bound RNA aptamer (C) and the TNF-α-unbound RNA aptamer (F), resulting from reacting the radioisotope-labeled 50 pM RNA aptamer ATK001 (a) and 50 pM RNA aptamer ATK007 (b) with TNF-α in a manner in which the amount of TNF-α was increased (ranging from 0 to 320 nM), are shown in a and b of FIG. 4. The percentage of RNA binding to TNF-α was determined and is graphed in c of FIG. 4.
(In general: Mobility shift assays separate free from complexed probe on a gel.)

The next series concerns the target ErbB2 (UniProt P04626 P04626:23-652). In words: SPR; specificity control; printed as about 104 nM, read as 10^4 nM (lost superscript). The settings on record: tags: ThermoFisher. On the procedure: (§1) In order to determine kinetics, the flow rate was changed to 30 μL/min.
(§2) In order to evaluate the binding specificity of the RNA aptamer to TNF-α through SPR analysis in the same manner as in <Example 4> above, the binding capability to ErbB2 (ThermoFisher, USA) (Nucleic Acid Ther. 2011 June; 21(3):173-178), ErbB3 (ThermoFisher, USA) (Proc. Natl. Acad. Sci. USA. (2012), 109(33):13237-42) and IGF-BP1 (ThermoFisher, USA) (Insulin-like growth factor-binding protein 1) (Crit. Rev. Oncol. Hematol. (2008), 66(2):91-98), in addition to TNF-α, was quantified in Kd. The results are shown in [FIG. 5] (FIG. 5a illustrating the results of measurement of binding capability of ATK001, FIG. 5b illustrating the results of measurement of binding capability of ATK007, and FIG. 5c illustrating the results of measurement of binding capability of ATK001).
On the technique in general: SPR reads the build-up and loss of mass on a sensor chip optically.

The target of a further series is ErbB3 (UniProt P21860 P21860:20-643). Described as above. The settings on record: tags: ThermoFisher. As for the experimental part:
as §1, §2

Series [2] has as its target T1, TNF-alpha. In words: SPR; range given for ATK001 and ATK007 together; TNF-alpha immobilized on CM5, HBS. As to conditions: tags: recombinant human TNF-alpha (Sigma-Aldrich; biotinylated for SELEX); chain copies: 3. On the procedure:
SPR (Surface Plasmon Resonance) analysis was performed using a Biacore2000 (BIACORE, USA). A mixture of NHS (0.1 M N-hydroxysuccinimide) and DEC (0.4 M N-ethyl-N′-(dimethylaminopropyl)carbodiimide) in equal amounts (50 μL) was prepared and allowed to flow at 5 μL/min for 40 sec to thus activate a CM5 sensor chip. When 150-200 RU appeared, TNF-α protein to be immobilized was mixed with sodium acetate (pH 4.0) and allowed to flow at […]. In order to evaluate whether or not the protein was immobilized, 50 mM NaOH was allowed to flow for 5 sec. At 80° C., RNA aptamers ATK001 and ATK007 were denatured for 5 min and then restored at room temperature for 15 min, thus preparing an analyte (RNA).
as §1

T1 sequence (P01375 77-233, one chain of several): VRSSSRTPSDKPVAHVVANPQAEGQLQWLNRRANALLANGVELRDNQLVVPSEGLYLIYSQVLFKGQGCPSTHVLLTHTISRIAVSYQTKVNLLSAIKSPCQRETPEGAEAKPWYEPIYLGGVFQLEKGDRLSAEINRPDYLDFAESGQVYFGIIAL
Chain of ErbB3 (P21860 20-643, one chain of several): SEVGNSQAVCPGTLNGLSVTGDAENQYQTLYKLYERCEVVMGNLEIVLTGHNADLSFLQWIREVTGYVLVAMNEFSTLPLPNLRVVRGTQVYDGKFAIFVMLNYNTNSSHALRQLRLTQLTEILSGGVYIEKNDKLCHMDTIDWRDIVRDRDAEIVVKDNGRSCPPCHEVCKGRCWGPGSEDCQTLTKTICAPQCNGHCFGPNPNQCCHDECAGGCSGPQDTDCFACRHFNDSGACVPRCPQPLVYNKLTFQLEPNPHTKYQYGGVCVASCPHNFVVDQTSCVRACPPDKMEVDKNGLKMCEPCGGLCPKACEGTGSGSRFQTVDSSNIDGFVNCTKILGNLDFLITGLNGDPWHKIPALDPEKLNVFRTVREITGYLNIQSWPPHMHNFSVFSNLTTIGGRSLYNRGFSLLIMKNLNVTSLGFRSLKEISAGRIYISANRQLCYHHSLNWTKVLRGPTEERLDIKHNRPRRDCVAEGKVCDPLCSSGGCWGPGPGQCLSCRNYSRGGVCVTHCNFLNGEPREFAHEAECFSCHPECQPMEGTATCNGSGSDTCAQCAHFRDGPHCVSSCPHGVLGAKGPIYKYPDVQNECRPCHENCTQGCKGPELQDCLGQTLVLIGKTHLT

B1: ATK007 (ssRNA)
RNA: GCGGAAGCGUGCUGGGCCCGGCUUGCAGGUCGCCGAAAUGACCGCACACAUAACCCAGAGGUCGAU
modifications: 2'-F on all C and U
Consider B1, for which the Kd with TNF-alpha [1] is about 0.005 µM; with ErbB2, about 10 µM; in the series with ErbB3, about 10 µM; with TNF-alpha [2], 0.00529 µM.

B2: ATK001 (ssRNA)
RNA: GGGAGGACGAUGCGGCCACUGGCUAGGAACUCGAGUACUGGGUGGCAGACGACUCGCCCGA
modifications: 2'-F on all C and U
As for B2, the Kd was about 10 µM in the series with ErbB2, about 10 µM with ErbB3 and 0.00529 µM with TNF-alpha [2].

Broadly, the Kd is the free concentration of one partner at which half of the binding sites on the other are occupied at equilibrium, for simple one-to-one binding.
